Earlier results on 1 substance are cited in publication PMC2757418.

The target in this series is netrin-1 (UniProt O95631).

For orientation: Kd means the equilibrium constant for the complex coming apart. For the substance DCC (from UniProt P43146), the Kd was 10 nM.
